Eight molecules from patent publication US20210260163A1 (ASKGENE PHARMA, published 2021) can be followed below.

Assay [1] deals with T1, IL-2 ("IL-2 proteins" coated on the ELISA plate) (UniProt P60568 21-153, limits assumed). The experiment in a line: ELISA, IL-2 coated, Fc-mask fusion titrated, pH 6.4. As to the method: (§1) 10 μg/ml of IL-2 proteins in PBS were seeded to the 96-well plate at 100 μl/well and coated at 4 degree for overnight. The wells were washed by PBS three times and blocked with 100 μl 2% milk/PBS for 1 hr. Then the wells were washed three times by PBS and 100 μl protein samples with 3-fold serial dilution were added to the wells for 1 hr incubation at room temperature. After three times of PBS washing, 100 μl of HRP conjugated anti-IgG antibody were added and incubated at RT for 1 hr. Subsequently, the wells were washed again by PBS for 3 times, detection reagents were added and OD450 nm were measured.
T1 sequence (P60568 21-153 limits assumed): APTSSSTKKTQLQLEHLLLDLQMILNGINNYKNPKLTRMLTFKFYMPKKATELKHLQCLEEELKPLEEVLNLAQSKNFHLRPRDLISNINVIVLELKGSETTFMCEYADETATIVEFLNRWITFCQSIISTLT
(§2) In order to discover improved versions of the IL-2 antagonist or mask with higher folds of activations upon protease cleavage, a number of mutations in the IL-2Rβ extracellular domain were constructed.

The target in assay [2] is T1, IL-2 ("IL-2 proteins" coated on the …). The experiment in a line: ELISA, IL-2 coated, Fc-mask fusion titrated, pH 7.4. As to the method: as §1, §2
The target is the same in assay [3]. Briefly: ELISA, IL-2 coated, pH 6.4; reference understood as wild type (SEQ ID NO: 195). As to the method: as §1, §2
Background: ELISA stands for enzyme-linked immunosorbent assay.

For assay [4] the target is unchanged. The experiment in a line: ELISA, IL-2 coated, pH 6.4; reference wild type. Here is the method: as §1, §2
The target is the same in assay [5]. The experiment in a line: ELISA, IL-2 coated, pH 7.4. As to the method: as §1, §2
The target is the same in assay [6]. Briefly: ELISA, IL-2 coated, pH 7.4 and pH 6.4; reference understood as wild type (SEQ ID NO: 195). As to the method: as §1, §2

B1: Fc with LALA and hole mutation (L234A-L235A-Y407T) with beta subunit (SEQ ID NO: 195), expressed as homodimer (Fc fusion)
chain: DKTHTCPPCPAPEAAGGPSVFLFPPKPKDTLMISRTPEVTCVVVDVSHEDPEVKFNWYVDGVEVHNAKTKPREEQYNSTYRVVSVLTVLHQDWLNGKEYKCKVSNKALPAPIEKTISKAKGQPREPQVYTLPPSREEMTKNQVSLTCLVKGFYPSDIAVEWESNGQPENNYKTTPPVLDSDGSFFLTSKLTVDKSRWQQGNVFSCSVMHEALHNHYTQKSLSLSPGKGGGGSGGGGSGGGGSLSGRSDNHGGGGSAVNGTSQFTCFYNSRANISCVWSQDGALQDTSCQVHAWPDRRRWNQTCELLPVSQASWACNLILGAPDSQKLTTVDIVTLRVLCREGVRWRVMAIQDFKPFENLRLMAPISLQVVHVETHRCNISWEISQASHYFERHLEFEARTLSPGHTWEEAPLLTLKQKQEWICLETLTPDTQYEFQVRVKPLQGEFTTWSPWSQPLAFRTKPAALGKDT
notes: also called WT
In the case of B1, the Kd was determined as 269 mg/L in assay [1] and 219 mg/L in assay [2].

B2: Fc with LALA and hole mutation (L234A-L235A-Y407T) fused with beta subunit containing mutation (E136Q) (SEQ ID NO: 204), homodimer (Fc fusion)
chain: DKTHTCPPCPAPEAAGGPSVFLFPPKPKDTLMISRTPEVTCVVVDVSHEDPEVKFNWYVDGVEVHNAKTKPREEQYNSTYRVVSVLTVLHQDWLNGKEYKCKVSNKALPAPIEKTISKAKGQPREPQVYTLPPSREEMTKNQVSLTCLVKGFYPSDIAVEWESNGQPENNYKTTPPVLDSDGSFFLTSKLTVDKSRWQQGNVFSCSVMHEALHNHYTQKSLSLSPGKGGGGSGGGGSGGGGISSGLLSSGGSGGSLSGRSDNHGGGGSAVNGTSQFTCFYNSRANISCVWSQDGALQDTSCQVHAWPDRRRWNQTCELLPVSQASWACNLILGAPDSQKLTTVDIVTLRVLCREGVRWRVMAIQDFKPFENLRLMAPISLQVVHVETHRCNISWEISQASHYFQRHLEFEARTLSPGHTWEEAPLLTLKQKQEWICLETLTPDTQYEFQVRVKPLQGEFTTWSPWSQPLAFRTKPAALGKDT
Molecule B2 yielded a Kd in assay [1] of 128 mg/L. In addition, the “fold better binding affinity at pH 6.4” value in assay [3] was 2 fold.

B3: Fc-mask fusion with beta subunit containing mutation (E136Q/H138R) (SEQ ID NO: 205), homodimer (Fc fusion)
chain: DKTHTCPPCPAPEAAGGPSVFLFPPKPKDTLMISRTPEVTCVVVDVSHEDPEVKFNWYVDGVEVHNAKTKPREEQYNSTYRVVSVLTVLHQDWLNGKEYKCKVSNKALPAPIEKTISKAKGQPREPQVYTLPPSREEMTKNQVSLTCLVKGFYPSDIAVEWESNGQPENNYKTTPPVLDSDGSFFLTSKLTVDKSRWQQGNVFSCSVMHEALHNHYTQKSLSLSPGKGGGGSGGGGSGGGGISSGLLSSGGSGGSLSGRSDNHGGGGSAVNGTSQFTCFYNSRANISCVWSQDGALQDTSCQVHAWPDRRRWNQTCELLPVSQASWACNLILGAPDSQKLTTVDIVTLRVLCREGVRWRVMAIQDFKPFENLRLMAPISLQVVHVETHRCNISWEISQASHYFQRRLEFEARTLSPGHTWEEAPLLTLKQKQEWICLETLTPDTQYEFQVRVKPLQGEFTTWSPWSQPLAFRTKPAALGKDT
In the case of B3, the “fold enhancement of binding affinity at pH 6.4 against wild type” value in assay [4] stood at 2 fold. Also, the Kd in assay [1] is 105 mg/L; in assay [2], 269 mg/L.

B4: Fc with LALA and hole mutation (L234A-L235A-Y407T) fused with beta subunit containing mutation (V75F) (SEQ ID NO: 203), homodimer (Fc fusion)
chain: DKTHTCPPCPAPEAAGGPSVFLFPPKPKDTLMISRTPEVTCVVVDVSHEDPEVKFNWYVDGVEVHNAKTKPREEQYNSTYRVVSVLTVLHQDWLNGKEYKCKVSNKALPAPIEKTISKAKGQPREPQVYTLPPSREEMTKNQVSLTCLVKGFYPSDIAVEWESNGQPENNYKTTPPVLDSDGSFFLTSKLTVDKSRWQQGNVFSCSVMHEALHNHYTQKSLSLSPGKGGGGSGGGGSGGGGISSGLLSSGGSGGSLSGRSDNHGGGGSAVNGTSQFTCFYNSRANISCVWSQDGALQDTSCQVHAWPDRRRWNQTCELLPVSQASWACNLILGAPDSQKLTTFDIVTLRVLCREGVRWRVMAIQDFKPFENLRLMAPISLQVVHVETHRCNISWEISQASHYFERHLEFEARTLSPGHTWEEAPLLTLKQKQEWICLETLTPDTQYEFQVRVKPLQGEFTTWSPWSQPLAFRTKPAALGKDT
On to B4, for which the binding result in assay [5] is given as “no binding”.

B5: Fc with LALA and hole mutation (L234A-L235A-Y407T) fused with beta subunit containing mutation (V75Q) (SEQ ID NO: 202), homodimer (Fc fusion)
chain: DKTHTCPPCPAPEAAGGPSVFLFPPKPKDTLMISRTPEVTCVVVDVSHEDPEVKFNWYVDGVEVHNAKTKPREEQYNSTYRVVSVLTVLHQDWLNGKEYKCKVSNKALPAPIEKTISKAKGQPREPQVYTLPPSREEMTKNQVSLTCLVKGFYPSDIAVEWESNGQPENNYKTTPPVLDSDGSFFLTSKLTVDKSRWQQGNVFSCSVMHEALHNHYTQKSLSLSPGKGGGGSGGGGSGGGGISSGLLSSGGSGGSLSGRSDNHGGGGSAVNGTSQFTCFYNSRANISCVWSQDGALQDTSCQVHAWPDRRRWNQTCELLPVSQASWACNLILGAPDSQKLTTQDIVTLRVLCREGVRWRVMAIQDFKPFENLRLMAPISLQVVHVETHRCNISWEISQASHYFERHLEFEARTLSPGHTWEEAPLLTLKQKQEWICLETLTPDTQYEFQVRVKPLQGEFTTWSPWSQPLAFRTKPAALGKDT
Consider B5, for which the binding result in assay [5] is listed as “no binding”.

B6: Fc with LALA and hole mutation (L234A-L235A-Y407T) fused with beta subunit containing mutation (S69H) (SEQ ID NO: 201), homodimer (Fc fusion)
chain: DKTHTCPPCPAPEAAGGPSVFLFPPKPKDTLMISRTPEVTCVVVDVSHEDPEVKFNWYVDGVEVHNAKTKPREEQYNSTYRVVSVLTVLHQDWLNGKEYKCKVSNKALPAPIEKTISKAKGQPREPQVYTLPPSREEMTKNQVSLTCLVKGFYPSDIAVEWESNGQPENNYKTTPPVLDSDGSFFLTSKLTVDKSRWQQGNVFSCSVMHEALHNHYTQKSLSLSPGKGGGGSGGGGSGGGGISSGLLSSGGSGGSLSGRSDNHGGGGSAVNGTSQFTCFYNSRANISCVWSQDGALQDTSCQVHAWPDRRRWNQTCELLPVSQASWACNLILGAPDHQKLTTVDIVTLRVLCREGVRWRVMAIQDFKPFENLRLMAPISLQVVHVETHRCNISWEISQASHYFERHLEFEARTLSPGHTWEEAPLLTLKQKQEWICLETLTPDTQYEFQVRVKPLQGEFTTWSPWSQPLAFRTKPAALGKDT
In turn, B6 came in with a Kd in assay [1] of 187 mg/L. Moreover, the “fold better binding affinity at pH 6.4” value in assay [3] came to 2 fold.

B7: Fc with LALA and hole mutation (L234A-L235A-Y407T) fused with beta subunit containing mutation (D68E) (SEQ ID NO: 200), homodimer (Fc fusion)
chain: DKTHTCPPCPAPEAAGGPSVFLFPPKPKDTLMISRTPEVTCVVVDVSHEDPEVKFNWYVDGVEVHNAKTKPREEQYNSTYRVVSVLTVLHQDWLNGKEYKCKVSNKALPAPIEKTISKAKGQPREPQVYTLPPSREEMTKNQVSLTCLVKGFYPSDIAVEWESNGQPENNYKTTPPVLDSDGSFFLTSKLTVDKSRWQQGNVFSCSVMHEALHNHYTQKSLSLSPGKGGGGSGGGGSGGGGISSGLLSSGGSGGSLSGRSDNHGGGGSAVNGTSQFTCFYNSRANISCVWSQDGALQDTSCQVHAWPDRRRWNQTCELLPVSQASWACNLILGAPESQKLTTVDIVTLRVLCREGVRWRVMAIQDFKPFENLRLMAPISLQVVHVETHRCNISWEISQASHYFERHLEFEARTLSPGHTWEEAPLLTLKQKQEWICLETLTPDTQYEFQVRVKPLQGEFTTWSPWSQPLAFRTKPAALGKDT
As to B7, the Kd was 118 mg/L in assay [1] and 124 mg/L in assay [2]. Moreover, the “fold increase of binding affinity at pH 7.4 and pH 6.4” value in assay [6] was found to be 2 fold.

B8: Fc with LALA and hole mutation (L234A-L235A-Y407T) fused with beta subunit containing mutation R15Y (SEQ ID NO: 199), homodimer (Fc fusion)
chain: DKTHTCPPCPAPEAAGGPSVFLFPPKPKDTLMISRTPEVTCVVVDVSHEDPEVKFNWYVDGVEVHNAKTKPREEQYNSTYRVVSVLTVLHQDWLNGKEYKCKVSNKALPAPIEKTISKAKGQPREPQVYTLPPSREEMTKNQVSLTCLVKGFYPSDIAVEWESNGQPENNYKTTPPVLDSDGSFFLTSKLTVDKSRWQQGNVFSCSVMHEALHNHYTQKSLSLSPGKGGGGSGGGGSGGGGISSGLLSSGGSGGSLSGRSDNHGGGGSAVNGTSQFTCFYNSYANISCVWSQDGALQDTSCQVHAWPDRRRWNQTCELLPVSQASWACNLILGAPDSQKLTTVDIVTLRVLCREGVRWRVMAIQDFKPFENLRLMAPISLQVVHVETHRCNISWEISQASHYFERHLEFEARTLSPGHTWEEAPLLTLKQKQEWICLETLTPDTQYEFQVRVKPLQGEFTTWSPWSQPLAFRTKPAALGKDT
In the case of B8, the binding result in assay [5] is reported as “no binding”.

For orientation: Kd means the free concentration of one partner at which half of the binding sites on the other are occupied at equilibrium, for simple one-to-one binding.
